Target: GST-Kv4.3 NT (human)
Assay: pull-down

Chain of GST-Kv4.3 NT (human) (Q9UK17 whole entry): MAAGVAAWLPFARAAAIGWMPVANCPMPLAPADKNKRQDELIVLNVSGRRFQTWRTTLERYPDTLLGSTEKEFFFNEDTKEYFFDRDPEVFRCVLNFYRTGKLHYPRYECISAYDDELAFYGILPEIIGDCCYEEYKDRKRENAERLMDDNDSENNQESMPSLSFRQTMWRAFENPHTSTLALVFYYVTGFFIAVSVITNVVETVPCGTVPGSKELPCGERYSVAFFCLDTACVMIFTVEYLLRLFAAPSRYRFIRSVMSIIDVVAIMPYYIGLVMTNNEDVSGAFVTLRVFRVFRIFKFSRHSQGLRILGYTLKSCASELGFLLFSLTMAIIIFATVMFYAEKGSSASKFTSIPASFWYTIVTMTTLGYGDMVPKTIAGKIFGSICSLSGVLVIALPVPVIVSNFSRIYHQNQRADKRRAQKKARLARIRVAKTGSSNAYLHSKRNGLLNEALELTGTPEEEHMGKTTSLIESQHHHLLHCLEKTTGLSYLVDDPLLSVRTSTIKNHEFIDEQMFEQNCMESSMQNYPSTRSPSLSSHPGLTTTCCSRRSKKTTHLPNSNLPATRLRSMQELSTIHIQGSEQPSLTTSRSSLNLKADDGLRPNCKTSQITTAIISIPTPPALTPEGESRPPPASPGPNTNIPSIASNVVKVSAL

fold binding activity relative to DPP6-T: > 2 fold
Substance: DPP6-T p.H332R variant, in vitro translated and radiolabeled (natural protein)

From publication PMC4599408
